Laboratory results published in patent publication US20250304640A1 (ORIKINE BIO SL, published 2025).
Where a chain is given by its changes, count along the chain named. Names and notes keep the numbering of the source. One block for each binder: values may come before it.

Legend:
Assay in all cases: cell-based or functional assay
CSF1 receptor (CSF1R) = CSF1 receptor (CSF1R) (UniProt P07333)
[1] = target: T1, IL-10 receptor (IL-10R: IL10RA and IL10RB) on HEK-Blue IL-10 reporter cells (UniProt Q13651 22-578; Q08334 20-325, limits assumed)
T1 sequence (looked up) 1: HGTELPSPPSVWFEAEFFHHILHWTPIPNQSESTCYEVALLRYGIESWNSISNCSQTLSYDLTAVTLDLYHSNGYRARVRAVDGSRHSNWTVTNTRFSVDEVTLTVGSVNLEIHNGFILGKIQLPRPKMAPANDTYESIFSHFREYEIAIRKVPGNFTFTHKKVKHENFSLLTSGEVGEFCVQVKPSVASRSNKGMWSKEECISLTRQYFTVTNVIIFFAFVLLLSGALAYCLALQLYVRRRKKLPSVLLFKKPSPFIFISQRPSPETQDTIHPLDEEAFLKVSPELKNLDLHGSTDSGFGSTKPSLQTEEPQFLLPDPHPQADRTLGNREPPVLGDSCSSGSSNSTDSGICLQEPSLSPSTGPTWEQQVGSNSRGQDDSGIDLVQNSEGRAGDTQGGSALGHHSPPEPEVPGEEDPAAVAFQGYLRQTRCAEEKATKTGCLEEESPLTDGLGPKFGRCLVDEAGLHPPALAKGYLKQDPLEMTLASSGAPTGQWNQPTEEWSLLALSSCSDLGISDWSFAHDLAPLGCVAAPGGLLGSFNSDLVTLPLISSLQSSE
T1 sequence (looked up) 2: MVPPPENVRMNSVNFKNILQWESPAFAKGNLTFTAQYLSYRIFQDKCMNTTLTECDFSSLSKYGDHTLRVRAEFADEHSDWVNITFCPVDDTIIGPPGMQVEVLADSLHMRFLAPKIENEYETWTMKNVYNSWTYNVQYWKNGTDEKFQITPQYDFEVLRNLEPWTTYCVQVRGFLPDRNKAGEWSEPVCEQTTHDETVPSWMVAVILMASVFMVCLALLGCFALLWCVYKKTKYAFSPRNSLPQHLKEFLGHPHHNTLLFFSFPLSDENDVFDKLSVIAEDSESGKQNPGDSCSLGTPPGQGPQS

IL10RA = target: T2, IL10RA (UniProt Q13651 22-578, limits assumed)
T2 sequence (looked up): T1 sequence (looked up) 1

[2] = target: T1, IL-10 receptor (IL-10R: IL10RA and …); remark: listed apart in the source

Chain of CSF1 receptor (CSF1R) (P07333 20-972 limits assumed): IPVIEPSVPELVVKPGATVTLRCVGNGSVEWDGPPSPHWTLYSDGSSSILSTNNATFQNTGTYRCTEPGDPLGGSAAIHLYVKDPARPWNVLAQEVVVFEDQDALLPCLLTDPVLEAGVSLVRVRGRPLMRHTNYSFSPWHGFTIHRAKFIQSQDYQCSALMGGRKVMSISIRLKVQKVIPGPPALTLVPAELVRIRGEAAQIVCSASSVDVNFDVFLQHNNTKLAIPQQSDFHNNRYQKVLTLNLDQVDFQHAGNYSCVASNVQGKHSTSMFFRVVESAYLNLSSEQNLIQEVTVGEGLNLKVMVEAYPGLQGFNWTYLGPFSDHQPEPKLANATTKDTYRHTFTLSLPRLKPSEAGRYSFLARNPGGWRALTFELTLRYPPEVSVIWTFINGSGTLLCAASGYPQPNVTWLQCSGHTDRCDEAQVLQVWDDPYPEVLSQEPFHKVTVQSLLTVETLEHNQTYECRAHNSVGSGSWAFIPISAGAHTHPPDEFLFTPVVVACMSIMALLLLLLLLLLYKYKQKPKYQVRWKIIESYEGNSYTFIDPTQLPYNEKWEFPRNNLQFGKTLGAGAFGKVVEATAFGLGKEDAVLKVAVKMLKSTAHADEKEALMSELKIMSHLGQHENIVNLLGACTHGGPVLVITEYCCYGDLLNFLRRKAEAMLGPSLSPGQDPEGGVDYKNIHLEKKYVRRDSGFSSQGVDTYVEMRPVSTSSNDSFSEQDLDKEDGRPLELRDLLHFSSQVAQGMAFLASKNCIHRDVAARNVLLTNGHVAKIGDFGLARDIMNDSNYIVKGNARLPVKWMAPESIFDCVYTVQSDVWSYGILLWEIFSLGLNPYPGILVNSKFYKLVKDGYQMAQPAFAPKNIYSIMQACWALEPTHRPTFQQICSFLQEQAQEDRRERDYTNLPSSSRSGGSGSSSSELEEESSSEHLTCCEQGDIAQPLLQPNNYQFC

B1: CSF1 (wild-type human CSF1) (ligand)
chain: EEVSEYCSHMIGSGHLQSLQRLIDSQMETSCQITFEFVDQEQLKDPVCYLKKAFLLVQDIMEDTMRFRDNTPNAIAIVQLQELSLRLKSCFTKDYEEHDKACVRTFYETPLQLLEKVKNVFNETKNLLDKDWNIFSKNCNNSFAECSSQD
CSF1 EC-50, HEK293 CSF1R/SRE reporter (CSF1 receptor (CSF1R)): 7.34e-10
EC50, HEK293 CSF1R/SRE reporter, biological replica 1 (CSF1 receptor (CSF1R)): 1.88e-09
EC50, HEK293 CSF1R/SRE reporter, biological replica 2 (CSF1 receptor (CSF1R)): 5.58e-09
EC-50, HEK293 CSF1R/SRE reporter, biological replica 1 (CSF1 receptor (CSF1R)): 4.52e-10
EC-50, HEK293 CSF1R/SRE reporter, biological replica 2 (CSF1 receptor (CSF1R)): 3.37e-10
Max activation value, HEK293 CSF1R/SRE reporter, biological replica 1 (CSF1 receptor (CSF1R)): 8.49
Max activation value, HEK293 CSF1R/SRE reporter, biological replica 2 (CSF1 receptor (CSF1R)): 1.14

B2: CSF1 Q79L (ligand)
chain: B1 chain with Q79L
EC50, HEK293 CSF1R/SRE reporter, biological replica 1 (CSF1 receptor (CSF1R)): 6.76e-09
EC50, HEK293 CSF1R/SRE reporter, biological replica 2 (CSF1 receptor (CSF1R)): 1.28e-08

B4: CSF1 V117I (ligand)
chain: B1 chain with V117I
EC-50, HEK293 CSF1R/SRE reporter, biological replica 1 (CSF1 receptor (CSF1R)): 1e-09
EC-50, HEK293 CSF1R/SRE reporter, biological replica 2 (CSF1 receptor (CSF1R)): 4.37e-10
Max activation value, HEK293 CSF1R/SRE reporter, biological replica 1 (CSF1 receptor (CSF1R)): 7.64
Max activation value, HEK293 CSF1R/SRE reporter, biological replica 2 (CSF1 receptor (CSF1R)): 1.28

B7: CSF1 Q81F (ligand)
chain: B1 chain with Q81F
EC50, HEK293 CSF1R/SRE reporter, biological replica 1 (CSF1 receptor (CSF1R)): 1.08e-08
EC50, HEK293 CSF1R/SRE reporter, biological replica 2 (CSF1 receptor (CSF1R)): 6.77e-08

B8: CSF1 S18Q (ligand)
chain: B1 chain with S18Q
EC50, HEK293 CSF1R/SRE reporter, biological replica 1 (CSF1 receptor (CSF1R)): 2.51e-09
EC50, HEK293 CSF1R/SRE reporter, biological replica 2 (CSF1 receptor (CSF1R)): 1.99e-08

B9: CSF1 V120I (ligand)
chain: B1 chain with V120I
EC-50, HEK293 CSF1R/SRE reporter, biological replica 1 (CSF1 receptor (CSF1R)): 8.8e-10
EC-50, HEK293 CSF1R/SRE reporter, biological replica 2 (CSF1 receptor (CSF1R)): 4.43e-10
Max activation value, HEK293 CSF1R/SRE reporter, biological replica 1 (CSF1 receptor (CSF1R)): 8.86
Max activation value, HEK293 CSF1R/SRE reporter, biological replica 2 (CSF1 receptor (CSF1R)): 1.37

B11: CSF1 V78W (ligand)
chain: B1 chain with V78W
EC50, HEK293 CSF1R/SRE reporter, biological replica 1 (CSF1 receptor (CSF1R)): 6.23e-09
EC50, HEK293 CSF1R/SRE reporter, biological replica 2 (CSF1 receptor (CSF1R)): 2.1e-08

B15: ORK10-003-HiBit D44A (ligand)
chain: MTQSENSCTHFPGNLPNMLRDLRDAFSRVKTFFQMKDQLDNLLLKESLLEDFKGYLGCQALSEMIQFYLEEVMPQAENQDPDIKAHVNSLGENLKTLRLRLRRCHRFLPCENKSKAVEQVKNAFNKLQEKGIYKAMSEFDIFINYIEAYLYKTITPEFANMLRDLRDAFSRVKTFFQMKDQLANLLLKESLLEDFKGYLGCQALSEMIQFYLEEVMPQAENQDPDIKAHVNSLGENLKTLRLRLRRCHRFLPCENKSKAVEQVKNAFNKLQEKGIYKAMSEFDIFINYIEAYMTMGGVSGWRLFKKIS
EC-50, HEK-Blue IL-10 reporter cells (IL10RA): 2.01e-09

B16: ORK10-003-HiBit K34A (ligand)
chain: B15 chain with K173A, A183D
EC-50, HEK-Blue IL-10 reporter cells (IL10RA): 9.22e-10

B20: ORK10-002 (ligand)
chain: MTQSENSCTHFPGNLPNMLRDLRDAFSRVKTFFQMKDQLDNLLLKESLLEDFKGYLGCQALSEMIQFYLEEVMPQAENQDPDIKAHVNSLGENLKTLRLRLRRCHRFLPCENKSKAVEQVKNAFNKLQEKGIYKAMSEFDIFINYIEAYMTMNFGGLDYLPNMLRDLRDAFSRVKTFFQMKDQLDNLLLKESLLEDFKGYLGCQALSEMIQFYLEEVMPQAENQDPDIKAHVNSLGENLKTLRLRLRRCHRFLPCENKSKAVEQVKNAFNKLQEKGIYKAMSEFDIFINYIEAYMTM
EC-50, HEK-Blue IL-10 reporter cells [1]: 3.87e-10

B23: Foldikine10 (ligand)
chain: MTQSENSCTHFPGNLPNMLRDLRDAFSRVKTFFQMKDQLDNLLLKESLLEDFKGYLGCQALSEMIQFYLEEVMPQAENQEPDIKAHVNSLGENLKTLRLRLRRCHRFLPCENKSKAVEQVKNAFNKLQEKGIYKAMSEFDIFINYIEAYMTMNNGGLDYLPNMLRDLRDAFSRVKTFFQMKDQLDNLLLKESLLEDFKGYLGCQALSEMIQFYLEEVMPQAENQDPDIKAHVNSLGENLKTLRLRLRRNHRFLPCENKSKAVEQVKNAFNKLQEKGIYKAMSEFDIFINYIEAYMTMKIRN
EC-50, HEK-Blue IL-10 reporter cells [1]: 6.01e-10

Results, then the binder that gave them:

EC50, HEK293 CSF1R/SRE reporter, biological replica 1 (CSF1 receptor (CSF1R)): 2.66e-09
EC50, HEK293 CSF1R/SRE reporter, biological replica 2 (CSF1 receptor (CSF1R)): 1.18e-08
B3: CSF1 H9F (ligand)
chain: B1 chain with H9F

EC50, HEK293 CSF1R/SRE reporter, biological replica 1 (CSF1 receptor (CSF1R)): 1.27e-08
EC50, HEK293 CSF1R/SRE reporter, biological replica 2 (CSF1 receptor (CSF1R)): 2.49e-08
B5: CSF1 E82K (ligand)
chain: B1 chain with E82K

EC-50, HEK293 CSF1R/SRE reporter, biological replica 1 (CSF1 receptor (CSF1R)): 1.18e-09
EC-50, HEK293 CSF1R/SRE reporter, biological replica 2 (CSF1 receptor (CSF1R)): 5.97e-10
Max activation value, HEK293 CSF1R/SRE reporter, biological replica 1 (CSF1 receptor (CSF1R)): 8.55
Max activation value, HEK293 CSF1R/SRE reporter, biological replica 2 (CSF1 receptor (CSF1R)): 1.14
B6: CSF1 A76I, V117L (ligand)
chain: B1 chain with A76I, V117L

EC50, HEK293 CSF1R/SRE reporter, biological replica 1 (CSF1 receptor (CSF1R)): 2.7e-09
EC50, HEK293 CSF1R/SRE reporter, biological replica 2 (CSF1 receptor (CSF1R)): 7.94e-09
B10: CSF1 Q17R (ligand)
chain: B1 chain with Q17R

EC-50, HEK-Blue IL-10 reporter cells [1]: 6.25e-10
B12: ORK10-005 (ligand)
chain: MTQSENSCTHFPGNLPNMLRDLRDAFSRVKTFFQMKDQLDNLLLKESLLEDFKGYLGCQALSEMIQFYLEEVMPQAENQDPDIKAHVNSLGENLKTLRLRLRRCHRFLPCENKSKAVEQVKNAFNKLQEKGIYKAMSEFDIFINYIEAKDKDIRDGDELANMLRDLRDAFSRVKTFFQMKDQLDNLLLKESLLEDFKGYLGCQALSEMIQFYLEEVMPQAENQDPDIKAHVNSLGENLKTLRLRLRRCHRFLPCENKSKAVEQVKNAFNKLQEKGIYKAMSEFDIFINYIEAYMTM

EC-50, HEK293 CSF1R/SRE reporter (CSF1 receptor (CSF1R)): 1.45e-09
B13: CSF1 (1-190) HiBiT (ligand)
chain: EEVSEYCSHMIGSGHLQSLQRLIDSQMETSCQITFEFVDQEQLKDPVCYLKKAFLLVQDIMEDTMRFRDNTPNAIAIVQLQELSLRLKSCFTKDYEEHDKACVRTFYETPLQLLEKVKNVFNETKNLLDKDWNIFSKNCNNSFAECSSQDGGVSGWRLFKKIS

EC-50, HEK-Blue IL-10 reporter cells (IL10RA): 1.51e-10
B14: ORK10-003-HiBit R24A (ligand)
chain: B15 chain with R163A, A183D

EC-50, HEK-Blue IL-10 reporter cells (IL10RA): 5.43e-11
B17: ORK10-003-HiBit E50A (ligand)
chain: B15 chain with A183D, E189A

EC-50, HEK-Blue IL-10 reporter cells (IL10RA): 4.37e-10
B18: ORK10-003-HiBit D44N (ligand)
chain: B15 chain with A183N

EC-50, HEK-Blue IL-10 reporter cells (IL10RA): 2.07e-10
B19: ORK10-003-HiBit Q38A (ligand)
chain: B15 chain with Q177A, A183D

EC-50, HEK-Blue IL-10 reporter cells [1]: 8.91e-10
B21: IL-10WT (wild-type human IL-10) (ligand)
chain: SPGQGTQSENSCTHFPGNLPNMLRDLRDAFSRVKTFFQMKDQLDNLLLKESLLEDFKGYLGCQALSEMIQFYLEEVMPQAENQDPDIKAHVNSLGENLKTLRLRLRRCHRFLPCENKSKAVEQVKNAFNKLQEKGIYKAMSEFDIFINYIEAYMTMKIRN

EC-50 for IL10 activity, HEK-Blue IL-10 reporter cells [2]: 4.1e-10
B22: CSF1-25AA-IL10-HiBit (ligand)
chain: EEVSEYCSHMIGSGHLQSLQRLIDSQMETSCQITFEFVDQEQLKDPVCYLKKAFLLVQDIMEDTMRFRDNTPNAIAIVQLQELSLRLKSCFTKDYEEHDKACVRTFYETPLQLLEKVKNVFNETKNLLDKDWNIFSKNCNNSFAECSSQDGGGSGGSGGSGGSGGSGGSGGSGGGRASPGQGTQSENSCTHFPGNLPNMLRDLRDAFSRVKTFFQMKDQLDNLLLKESLLEDFKGYLGCQALSEMIQFYLEEVMPQAENQDPDIKAHVNSLGENLKTLRLRLRRCHRFLPCENKSKAVEQVKNAFNKLQEKGIYKAMSEFDIFINYIEAYMTMKIRNGGVSGWRLFKKIS

EC-50, HEK-Blue IL-10 reporter cells [1]: 2.3e-10
B24: ORK10-003 (ligand)
chain: MTQSENSCTHFPGNLPNMLRDLRDAFSRVKTFFQMKDQLDNLLLKESLLEDFKGYLGCQALSEMIQFYLEEVMPQAENQDPDIKAHVNSLGENLKTLRLRLRRCHRFLPCENKSKAVEQVKNAFNKLQEKGIYKAMSEFDIFINYIEAYLYKTITPEFANMLRDLRDAFSRVKTFFQMKDQLDNLLLKESLLEDFKGYLGCQALSEMIQFYLEEVMPQAENQDPDIKAHVNSLGENLKTLRLRLRRCHRFLPCENKSKAVEQVKNAFNKLQEKGIYKAMSEFDIFINYIEAYMTM
